{
  "source": "paper PMC8514580",
  "about": "“Insight into the interaction between the RNA helicase CGH-1 and EDC-3 and its implications” (Scientific Reports, 2021)",
  "key": {"[1]": {"biological_target": "CAR-1 184-214 (Caenorhabditis elegans) (UniProt Q9XW17)", "experiment": "ITC", "settings": "cited from earlier work"}, "human HA-tagged DDX6": {"tested_on": "human HA-tagged DDX6", "settings": "Co-immunoprecipitation, YFP-tagged PATL1 mutants; cited from earlier work"}, "CGH-1_248-420^F355A": {"biological_target": "CGH-1_248-420^F355A (Caenorhabditis elegans, UniProt Q95YF3, F355A)", "sequence (Q95YF3 248-420 F355A)": "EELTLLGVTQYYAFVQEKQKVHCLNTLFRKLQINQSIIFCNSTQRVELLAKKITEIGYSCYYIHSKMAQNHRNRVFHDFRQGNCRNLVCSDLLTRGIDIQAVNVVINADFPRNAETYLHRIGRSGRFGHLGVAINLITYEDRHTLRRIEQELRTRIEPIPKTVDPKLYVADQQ", "design": "the cDNA fragments encoding CGH-1 RecA2 (residues 248–420); made in house; host or cells: E. coli Gold (DE3)", "settings": "ITC, CGH-1 F355A vs WT; cited from earlier work", "text": "We recently identified a highly conserved FDF (Phe-Asp-Phe) motif between beta-strand 12 and alpha-helix 13 in CGH-1 RecA2 domain but the function is currently unclear (Fig. 1B)[17]. Mechanistically, Phe355 in CGH-1 may mediate hydrophobic interaction with Thr266 in the TFG motif of CAR-1 and a mutation of Phe355 to Ala (F355A) in CGH-1 decreased the binding affinity by a factor of approximate 5 as measured by ITC assay. Since PATR-1N-terminus has also a TFG motif, we hypothesize that PATR-1 may also interact with CGH-1 via similar binding mechanism (Supplementary Fig. S3B and C). Striking ..."}, "CGH-1_248–420": {"tested_on": "CGH-1_248–420", "experiment": "GST-pulldown of CGH-1_248–420 WT", "assay_type": "binding, C. elegans", "settings": "PBS, ~100 μg GST protein, ~50 μg CGH-1, 2 h, 12% SDS-PAGE", "procedure": "(§1) The cDNA encoding a fragment of C. elegans EDC-3 (residues 230–566) plus a C-terminal His6 tag was synthesized by Sangon Biotech (Shanghai, China) Co., Ltd. The DNA fragment was then cloned into a pGEX-4T-1 expression vector using restriction enzymes BamHI and XhoI, and finally confirmed by DNA sequencing.\n(§2) To test if GST-tagged EDC-3 can pulldown CGH-1 protein, about 100 μg protein, GST alone or GST-EDC-3_230–566, was incubated with GST resin (GE Healthcare) in PBS for 1 h. The resin was then washed three times with the same buffer. Subsequently, the resin was incubated with ~ 50 μg recombinant CGH-1_248–420 protein or its 4A mutant in the same buffer for 2 h. The resin was then washed five times using the same buffer. The captured proteins in resin were finally heated and analyzed using 12% SDS-PAGE."}, "[2]": {"tested_on": "4A mutant of CGH-1_248–420", "experiment": "GST-pulldown of CGH-1_248–420 4A mutant", "assay_type": "binding, C. elegans", "settings": "PBS, ~100 μg GST protein, ~50 μg CGH-1 4A, 2 h, 12% SDS-PAGE", "procedure": "as §1, §2"}, "[3]": {"tested_on": "CGH-1_248–420 binding to GST-EDC-3_230–566", "experiment": "GST-pulldown competition, CGH-1_248–420 binding to GST-EDC-3_230–566", "design": "species or system C. elegans", "settings": "PBS, 2 h, same amount of CAR-1_184–268 and CGH-1_248–420 (50 μg)", "procedure": "To investigate whether CAR-1_184–268 can affect CGH-1_248–420 binding to EDC-3_230–566, approximate 100 μg GST-tagged EDC-3_230–566 was incubated with GST resin, followed by three times of wash in PBS. The resin was then incubated with 50 μg CGH-1_248–420 in the absence or presence of the same amount of CAR-1_184–268 for 2 h, followed by five times of PBS wash, and captured proteins were finally analyzed as described above.\nTo investigate whether C. elegans PATR-1 peptide will affect the CGH-1 binding to GST-tagged EDC-3_230–566 protein, approximate 100 μg GST-tagged EDC-3_230–566 was incubated with GST resin, followed by three times of wash in PBS. The resin was then incubated with 50 μg CGH-1_248–420 without PATR-1 peptide (0 μM) or with varied concentration of PATR-1 peptide (12.5, 25, or 50 μM) for 2 h, and was washed five times in PBS. The captured proteins in resin were finally heated and analyzed using 12% SDS-PAGE."}, "CGH-1_248-420^WT": {"biological_target": "T1, CGH-1_248-420^WT (Caenorhabditis elegans, UniProt Q95YF3)", "T1 construct": "the cDNA fragments encoding CGH-1 RecA2 (residues 248–420); made in house; host or cells: E. coli Gold (DE3)", "T1 sequence (Q95YF3 248-420)": "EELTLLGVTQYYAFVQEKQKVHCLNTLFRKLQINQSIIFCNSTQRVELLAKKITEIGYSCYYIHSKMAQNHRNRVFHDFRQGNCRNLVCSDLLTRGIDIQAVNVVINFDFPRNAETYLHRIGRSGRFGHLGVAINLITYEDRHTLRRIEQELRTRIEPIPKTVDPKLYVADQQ", "experiment": "ITC binding to CGH-1_248–420 WT", "design": "species or system C. elegans", "settings": "ITC, 20 °C, pH 7.5, 150 mM NaCl; CGH-1_248–420 WT", "procedure": "Expression plasmids regarding CGH-1 and CAR-1 were constructed as previously described. In brief, the cDNA fragments encoding CGH-1 RecA2 (residues 248–420), CAR-1 FDF-TFG (residues 184–268) were amplified by PCR from C. elegans genome library and cloned into the NdeI and XhoI site of a modified pET-28a (Novagen) vector (p28a), in which a thrombin protease cleavage site was removed.\nCGH-1 protein expression and purification were performed described as in our most recent paper. In brief, proteins were expressed in E. coli Gold (DE3) strain (Novagen). […] Cells were resuspended in Buffer A (20 mM Tris–HCl, pH 7.5, 1 M NaCl), and then lysed using high pressure at 4 °C. Proteins were initially purified by Ni-chelating resin (Qiagen), and further purified by size exclusion chromatography (SEC) on a Superdex 75 column (GE healthcare) in Buffer A. The purified proteins were dialyzed into Buffer B (20 mM Tris–HCl, pH 7.5, 150 mM NaCl).\nA peptide containing the C. elegans EDC-3 FDF fragment (residues 235–271) and PATR-1 fragment (residues 30–67) were synthesized from GL Biochem (Shanghai, China) Co., Ltd, respectively. Stock solutions of peptide were prepared in Buffer B described above, and were adjusted to pH 7.5 ± 0.02 for subsequent experiments.\nITC assays were performed as previously described. In brief, it was carried out on a MicroCal PEAQ-ITC (Malvern) at 20 °C with the following settings: reference power, 5 μcal/s; initial delay, 60 s; stir speed, 750 rpm; spacing time, 120 s. Proteins (or its mutants) and peptides were adjusted to 0.05 mM and 0.5 mM, respectively. Experiments were initialed by injection of 1 μl each of peptide into the sample cell (200 μl) filled with protein (or its mutants) solution, followed by 18 injections of 2 μl. The ITC data were fitted with a one-binding-site model using the Origin analysis software."}},
  "note": "Entries after “also recorded” stand apart in the source; their conditions may differ.",
  "data": [
    {"molecule": "CGH-1 248-420 (from UniProt Q95YF3)", "values": [
      {"measurement": "Kd", "setting": "[1]", "result": 43, "unit": "µM"}
    ]},
    {"molecule": "YFP-tagged PATL1 W46D: substitution of Trp46 to Asp in the YFP-tagged PATL1 (protein, UniProt Q86TB9 1-770, looked up, variant W46D, YFP tag) Protein PAT1 homolog 1: MFRYESLEDCPLDEDEDAFQGLGEEDEEIDQFNDDTFGSGAVDDDDQEAHERLAELEEKLPVAVNEQTGNGERDEMDLLGDHEENLAERLSKMVIENELEDPAIMRAVQTRPVLQPQPGSLNSSIWDGSEVLRRIRGPLLAQEMPTVSVLEYALPQRPPQGPEDDRDLSERALPRRSTSPIIGSPPVRAVPIGTPPKQMAVPSFTQQILCPKPVHVRPPMPPRYPAPYGERMSPNQLCSVPNSSLLGHPFPPSVPPVLSPLQRAQLLGGAQLQPGRMSPSQFARVPGFVGSPLAAMNPKLLQGRVGQMLPPAPGFRAFFSAPPSATPPPQQHPPGPGPHLQNLRSQAPMFRPDTTHLHPQHRRLLHQRQQQNRSQHRNLNGAGDRGSHRSSHQDHLRKDPYANLMLQREKDWVSKIQMMQLQSTDPYLDDFYYQNYFEKLEKLSAAEEIQGDGPKKERTKLITPQVAKLEHAYKPVQFEGSLGKLTVSSVNNPRKMIDAVVTSRSEDDETKEKQVRDKRRKTLVIIEKTYSLLLDVEDYERRYLLSLEEERPALMDDRKHKICSMYDNLRGKLPGQERPSDDHFVQIMCIRKGKRMVARILPFLSTEQAADILMTTARNLPFLIKKDAQDEVLPCLLSPFSLLLYHLPSVSITSLLRQLMNLPQSAATPALSNPHLTAVLQNKFGLSLLLILLSRGEDLQSSDPATESTQNNQWTEVMFMATRELLRIPQAALAKPISIPTNLVSLFSRYVDRQKLNLLETKLQLVQGIR", "values": [
      {"measurement": "interaction with DDX6", "setting": "human HA-tagged DDX6", "result": "impaired the interaction"}
    ]},
    {"molecule": "CAR-1: CAR-1, construct of ref 17; TFG motif interacts with Phe355 of CGH-1 (protein, UniProt Q9XW17 1-340, looked up) Protein LSM14 homolog car-1: MSNQTPYIGSKISLISKLDIRYEGILYTVDTNDSTIALAKVRSFGTEKRPTANPVAARDDVYEYIIFKASDIKDLIVCDTPKMANIGGGLPYDPAIISVSSRSAPASDGAPAASAGSSRAGTPSRNSPLGQIIQNQRPGRGGYQQNFQANRGYNNYRGGFAGGYNNQRGHNNYGVPRVNHREKLKFESDFDFEKANEKFQEVLVDNLEKLNIEDKAEPEVEEKKDAAFYDKKTSFFDNISCESLEKAEGKTGRPDWKKERETNQETFGHNAVRSLNYRRGFGGRGRGGNRGYGGYNNGYQHQHQHRGGYNGGYRQNNGGYRRGGYAPRDNQGNTAAAAEQ", "values": [
      {"measurement": "decrease of binding affinity, factor vs WT", "setting": "CGH-1_248-420^F355A", "result": "~5"}
    ]},
    {"molecule": "GST-EDC-3_230–566: GST-tagged fragment of C. elegans EDC-3 (residues 230–566) plus a C-terminal His6 tag (protein, left off: GST, end not stated, kept | His6, C-terminal, state not stated, GST-tagged fragment of C. elegans EDC-3 (residues 230–566) plus a C-terminal His6 tag) RNKNDLADPIDFDLDSDFDFAENLKLFEKDENDDQYYETVEKFKCSQNFAHYENIIDDENRVTSWTNLKARSELVKTGTTPQTSEKNNFRVTAVSFEKSIIGDPIPAISLNEKKEFLNECRVSLGEAVYDTIVADRIFQWVSEVQNSYGDAHGTVVLLASSANSVRSIRRLLTHFDKRRYNCHLFGKYPGEIFDHVNVVTDVKMLPREVPIICILSPVVNDDVECWLRAQSNGASSHYVCIENVPSVLEPSRCHLLQFGCATNGLRHAERKVQTINRGGITFEHLCQGKMHEETSSILVDSAIADLGSPSNWFDNTSSKFISTAFSTTFLVRLSQSN", "values": [
      {"measurement": "interaction with CGH-1_248–420", "setting": "CGH-1_248–420", "result": "can interact with CGH-1_248–420; also recorded: binds to CGH-1 RecA2 domain"},
      {"measurement": "amount of CGH-1 4A bound compared with wild-type", "setting": "[2]", "result": "less amount"}
    ]},
    {"molecule": "CAR-1_184–268: recombinant CAR-1 FDF-TFG (residues 184–268) (protein, left off: His tag (from the modified vector pET-28a), end not stated, state not stated) LKFESDFDFEKANEKFQEVLVDNLEKLNIEDKAEPEVEEKKDAAFYDKKTSFFDNISCESLEKAEGKTGRPDWKKERETNQETFG", "values": [
      {"measurement": "effect on binding of CGH-1_248–420 to EDC-3_230–566", "setting": "[3]", "result": "little or no effect"},
      {"measurement": "− TΔS", "setting": "CGH-1_248-420^WT", "result": 19.6, "unit": "kcal/mol"}
    ]}
  ]
}
